Experimental data taken from patent publication US10704064B2, “Recombinant yeast producing 3-hydroxypropionic acid and method for producing 3-hydroxypropionic acid using the same” (SK Innovation Co., Ltd., priority 2014, dated 2020).

B1: EUTEec: eutE type AADH of Escherichia coli HS, GenBank YP_001459232.1 (protein)
chain: MNQQDIEQVVKAVLLKMQSSDTPPAAVHEMGVFASLDDAVAAAKVAQQGLKSVAMRQLAIAAIREAGEKHARDLAELAVSETGMGRVEDKFAKNVAQARGTPGVECLSPQVLTGDNGLTLIENAPWGVVASVTPSTNPAATLINNAISLIAAGNSVIFAPHPAAKKVSQRAITLLNQAIVAAGGPENLLVTVANPDIETAQRLFKFPGIGLLVVTGGEAVVEAARKHTNKRLIAAGAGNPPVVVDETADLARAAQSIVKGASFDNNIICADEKVLIVVDSVADELMRLMEGQHAVKLTAEQAQQLQPVLLKNIDERGKGTVSRDWVGRDAAKIAAAIGLNVPQETRLLFVETTAEHPFAVTELMMPVLPVVRVANVADAIALAVKLEGGCHHTAAMHSRNIENMNQMANAIDTSIFVKNGPCIAGLGLGGEGWTTMTITTPTGEGVTSARTFVRLRRCVLVDAFRIV
modifications: EUTEec
B2: ADHEpm: adhE type AADH of Piromyces sp. E2, GenBank AY282576.1 (protein)
chain: MSGLQMFQNLSLYGSLAEIDTSEKLNEAMDKLTAAQEQFREYNQEQVDKIFKAVALAASQNRVAFAKYAHEETQKGVFEDKVIKNEFAADYIYHKYCNDKTAGIIEYDEANGLMEIAEPVGPVVGIAPVTNPTSTIIYKSLIALKTRNCIIFSPHPGAHKASVFVVKVLHQAAVKAGAPENCIQIIFPKMDLTTELLHHQKTRFIWATGGPGLVHASYTSGKPALGGGPGNAPALIDETCDMNEAVGSIVVSKTFDCGMICATENAVVVVESVYENFVATMKKRGAYFMTPEETKKASNLLFGEGMRLNAKAVGQTAKTLAEMAGFEVPENTVVLCGEASEVKFEEPMAHEKLTTILGIYKAKDFDDGVRLCKELVTFGGKGHTAVLYTNQNNKDRIEKYQNEVPAFHILVDMPSSLGCIGDMYNFRLAPALTITCGTMGGGSSSDNIGPKHLLNIKRVGMRRENMLWFKIPKSVYFKRAILSEALSDLRDTHKRAIIITDRTMTMLGQTDKIIKACEGHGMVCTVYDKVVPDPTIKCIMEGVNEMNVFKPDLAIALGGGSAMDAAKMMRLFYEYPDQDLQDIATRFVDIRKRVVGCPKLGRLIKTLVCIPTTSGTGAEVTPFAVVTSEEGRKYPLVDYELTPDMAIVDPEFAVGMPKRLTSWTGIDALTHAIESYVSIMATDFTRPYSLRAVGLIFESLSLAYNNGKDIEAREKMHNASAIAGMAFANAFLGCCHSVAHQLGSVYHIPHGLANALMLSHIIKYNATDSPVKMGTFPQYKYPQAMRHYAEIAELLLPPTQVVKMTDVDKVQYLIDRVEQLKADVGIPKSIKETGMVTEEDFFNKVDQVAIMAFDDQCTGANPRYPLVSELKQLMIDAWNGVVPKL
modifications: ADHEpm
B3: AADHmm: eutE type AADH of Morganella morganii SC01, GenBank EMP53767.1 (protein)
chain: MDQKEIENVVKAVLASMSAGTQPAAASAAPQQAAASQNNGFGVFESLDDAVLAAKEAQKSLKTVEMRNLCIGAIRRAATEHARELAVLAVEETGMGRVEDKLAKNLAQANGTPGVECLRPEVLTGDHGLTLIENAAWGVIASVTPSTNPAATAINNAISMIAGGNSVIFAPHPAAKKVSQRTITILNEAIVAAGGPNNLLVTVAKPDIETAQRLFKYPGIGLLVVTGGDAVVESARKHTNKRLIAAGAGNPPVVVDETADIERAAKAIVHGASFDNNIICADEKVLIAVDCIADKLITEMQRNHAVLLTREQSEKLIPVLLKNVDETGHGTVSRDWVGRDAAKIAAAIGMTVPADTRLLIAETDCKHPFAVTELMMPVLPIIRVKDVDQAIDLAVKLEGGCHHTAAMHSNNISNLNRMANAIDTSIFVKNGPCIAGLGLGGEGWTTMTITTPTGEGVTCARTFVRLRRCTMVDSFRIV
modifications: AADHmm
B4: AADHbw: eutE type AADH of Bilophila wadsworthia 3_1_6, GenBank EFV45545.1 (protein)
chain: MDVRQQDVERIVVEVLKKMMSDQPTAAATTVVAASGCDCGDFGLFDRLEDAVQAAEAAQKKISTVAMRDKIIAAIRKAGLENAKAFAEIAHNETGMGRVSDKIAKNILVCERTPGTECLSPMAISGDMGLTLIENAPWGVIASVTPSTNPTATVINNAISMIAGGNSVIFAPHPNAKRASQTAIQVLNKAIIEATGVANLLVAVKEPTIEVAQELFSHPRIKLLVVTGGEAVVAQARKVATMRLIAAGAGNPPVVVDETANIARAARSIYDGASFDNNIICADEKEIIAVDSIADQLKAEMKAIGAVEISLEQADAVARVVLRNYPQVEGGKAPNPNPKWVGRDAALIAKAAGIDVPDSCRLLIVDVKRDINHVFARVEQLMPVIPLLRAANVDEAIEWALILERGLSHTAGMHSRNIDNMDKMARAMNTSLFVKNGPHLAALGAGGEGWTTMTISTPTGEGVTCARSFVRLRRCCVVDNFRIV
modifications: AADHbw
B5: AADHhs: eutE type AADH of Halanaerobium saccharolyticum DSM 6643, GenBank CCU77919.1 (protein)
chain: MKIKENELDKIVNQVISSLNNKQNSNDFNTKINYGIFSTMDEAIAEAVKAQACLQLNYSTEAREKIIKSIRKNVSKHVEKISEMAVEETDMGRIEDKIIKNNLAINKTPGTEDLRTEAFSGKKGLTIVEEAPFGVICSIAPVTNPTETIISNAISMIASCNGVVFNSHPGAKKVSKYIIEVLNKVIMEAGGPENLLTAVNEPTLQTVESCMRDDRIAMIVATGGPGVVNAALSSGKKAIGAGAGNPPVLVDDTVDLKRVAKDIINGASFDNNLPCTSEKAIVALESIADSLLNEMTNQNAQLVHDIKALERVILNDDGSINKALVGKDAAFILNKAGLKAKSEDLRLVIVDVDLRHPFVQKEQLMPVIPLVRAKNFNEAMEMGVDIEEGNRHTAIIHSKNVDNLTKFAKKIETTIYVKNAPSYAGIGAGGEGYATFTIAGPTGEGLTSARSFTRKRRCVLVDGFSII
modifications: AADHhs
B6: AADHtl: eutE type AADH of Thauera linaloolentis DSM 12138, GenBank ENO90114.1 (protein)
chain: MVDIDLKNVEQIVRTVLASMQTQPQAVQPAAGRRAAPGVFTELDDAVAEASTAQRAIRNLATRVKVVEAIRKAAEAHARELAELAVAETGMGRVEDKFAKNVSQARHTPGVECLAPTALTGDRGLTLIENAAWGVIASVTPSTNPAATIINNAISMISAGNTVVFAPHPAAKKVSQRTVSLLNEASVAAGGPDNVVTTVLNPDIATAQRLFSYPGIHLLTVTGGEAVVEAARKHTDKRLIAAGAGNPPVVVDETADLARAARDIVWGASFDNNIICVDEKEIIVVDRVCDALKTEMARHKAVELTPDQGKRLVDVLLNYVGADGRGTVSRDWVGRDAAKIAAAIGLEVPADTRLLYIETPADHPFAVTELMMPVIPVVRAPDVDAAIDLAVKLEGNCRHTAAMHSRNIDALDRMANAINTSIFVKNGPCLAGLGFGGEGWTTMTISTPTGEGVTSARTFVRLRRCVLVDHFRIV
modifications: AADHtl
B7: AADHta: eutE type AADH of Tolumonas auensis DSM 9187, GenBank ACQ93307.1 (protein)
chain: MNNTELESLIRTILTEQLTPSATDTPACTASSVALFDDVDSAICAAHAAFLRYQEAPLKTRSAIIAAIRAEIAPCLSELAERAAAETGMGNTADKILKNKAALENTPGIEDLKTTALTGDEGMVLFEYSPFGVVGAVAPSTNPTETIINNSISMLAAGNAIYFSPHPGAKNISLWLIQKMEEIAFKVCGIHNLIVTVKEPTFEATQQMMAHDKIALLAITGGPGIVNMGLKSGKKVIGAGAGNPPCLVDETAEIVKAAQDIVAGASFDYNLPCIAEKSVIAVDCIADQLIQQMREFGAMQITDPQQIAQLREVCIQKGAANKSLVGKSPATILAAAGIPCPAKEPRLIILEVPANDPFVVTEQLMPVLPIVRVDNFEQGLQLALKVEDGLHHTAMMHSQNVSRLNKAAHLMQTSIFVKNGPSYAGIGVGAEGFTTFTIATPTGEGTTSARTFGRLRRCVLTNGFSIR
modifications: AADHta
B8: AADHbs: eutE type AADH of Blautia sp. CAG: 237, GenBank CDB76812.1 (protein)
chain: MDEIMIKNIVREVLMKTNLDISCKSDQGVFEDVNDAIDAAYIAQRDWYMNYKVEDRRRIIEAIRVVARENAPMFAKMIHEETGMGRYEDKITKNLAVIDKTPGVECLVTDAISGDSGLMIEEQAPFGVIGAITPSTNPTETIINNTISMIGGGNAVVFNVHPGAKKVCAVCLQILHKTIVENGGPANLITMQRKPDMEAVNKLTASPKIRLMVGTGGMGMVNALLKSGKKTIGAGAGNPPVVVDDTADLDKAASEIYRGASFDNNLLCLAEKETFVMDNVADELIRKMCACGAHLITPQETEQLLKVIFLEKDGKYSVNKKWVGKDASLILESIGIKDADTRLVLCEVPHDHPFVLVEQLMPIMPIVRCKTFEDCVKYAVVAENGNRHTASMFSKNVDHMTRFAKEIETTIFTKNAATLVGVGIGGEGHTTMTIAGPTGEGLTCARSFTRRRRCMLADGGLRVI
modifications: AADHbs

The molecules below were run on AADH (assay: AADH in vitro enzyme activity assay from yeast cell lysates). Conditions: CEN.PK lab strain, multicopy plasmid, TEF1 promoter.
Assay type: biochemical
Protocol: AADH activity was measured as described by Kozak et al. (2014, Metab. Eng. 21:46-59) by monitoring the reduction of NAD^+ at 340 nm at 30° C. The yeast cells for the cell lysates were collected, washed with water, and then resuspended into lysis buffer containing 100 mM Tris-HCl buffer (pH 7.5) and 1×EDTA free protease inhibitor cocktail (Roche). The cells were lysed with glass beads in a Precellys 24 homogenizer at 5500 rpm for 3×40 seconds and kept on ice between rounds. Lysates were centrifuged at 16 000 g for 20 min at 4° C. and supernatants were collected. The total protein concentration was determined using the Bradford method.
The enzyme assay reaction mixture contained 0.1 mM Coenzyme A, 50 mM CHES buffer (pH 9.5), 0.8 mM NAD^+, 0.2 mM DTT and 10 μL of cell extract in a total reaction volume of 200 μL. The reaction was started by adding 10 mM of freshly prepared acetaldehyde solution and reduction of NAD^+ was followed with a Thermo Konelab 20XT analyser.
Five AADH genes were originally chosen (i.e. ADHEpm, ADHEec, EUTec, EUTdz and LIN1129li) and transformed into the CEN.PK lab strain. These AADHs were expressed from a multicopy plasmid where they were under control of the TEF1 promoter.
Twenty additional novel AADH genes were chosen from the genome mining analyses to be evaluated for expression and enzyme activity in yeast.

| Molecule | AADH activity in yeast compared to the adhE-type AADHs |
| --- | --- |
| B1 | much higher AADH activity |

Same assay, conditions: in vitro, expressed in yeast

| Molecule | AADH activity |
| --- | --- |
| B2 | showed AADH activity |
| B1 | showed AADH activity |
| B3 | shown to have AADH activity |
| B4 | shown to have AADH activity |

The molecules below were run on S. cerevisiae VSK-128 ACS2 deletion strain (assay: AADH in vivo growth assay, ACS2 deletion strain on glucose-based agar plates). Conditions: not given.
Assay type: cell-based
From the text: All copies of the ACS2 gene were deleted from the industrial S. cerevisiae VSK-128 strain in order to generate a strain with a defective PDH-bypass that was incapable of growth on glucose-based medium. Expression vectors carrying the 25 different AADH variants were then transformed into this ACS2 deletion strain to evaluate their ability to recover the growth of this strain on glucose.
There was a good correlation between the in vitro AADH enzyme activity assays and the in vivo growth recovery analyses.

| Molecule | recovery of the growth deficiency of the ACS2-deletion strain |
| --- | --- |
| B1 | capable of recovering the growth deficiency |
| B3 | capable of recovering the growth deficiency |
| B4 | capable of recovering the growth deficiency |
| B5 | capable of recovering the growth deficiency |
| B6 | capable of recovering the growth deficiency |
| B7 | capable of recovering the growth deficiency |
| B8 | capable of recovering the growth deficiency |
